{
  "source": "paper PMC11192767",
  "about": "“A cocktail nanovaccine targeting key entry glycoproteins elicits high neutralizing antibody levels against EBV infection” (Nature Communications, 2024)",
  "proteins": {"B1": {"name": "EBV gB ectodomain (residues 22 to 672, fusion-loop residues replaced with HSV-1 residues), 6x His tag (domain or fragment)", "chain": "AQTPEQPAPPATTVQPTATRQQTSFPFRVCELSSHGDLFRFSSDIQCPSFGTRENHTEGLLMVFKDNIIPYSFKVRSYTKIVTNILIYNGHRADSVTNRHEEKFSVDSYETDQMDTIYQCYNAVKMTKDGLTRVYVDRDGVNITVNLKPTGGLANGVRRYASQTELYDAPGRVEATYRTRTTVNCLITDMMAKSNSPFDFFVTTTGQTVEMSPFYDGKNKETFHERADSFHVRTNYKIVDYDNRGTNPQGERRAFLDKGTYTLSWKLENRTAYCPLQHWQTFDSTIATETGKSIHFVTDEGTSSFVTNTTVGIELPDAFKCIEEQVNKTMHEKYEAVQDRYTKGQEAITYFITSGGLLLAWLPLTPRSLATVKNLTELTTPTSSPPSSPSPPAPSAARGSTPAAVLRRRRRDAGNATTPVPPTAPGKSLGTLNNPATVQIQFAYDSLRRQINRMLGDLARAWCLEQKRQNMVLRELTKINPTTVMSSIYGKAVAAKRLGDVISVSQCVPVNQATVTLRKSMRVPGSETMCYSRPLVSFSFINDTKTYEGQLGTDNEIFLTKKMTEVCQATSQYYFQSGNEIHVYNDYHHFKTIELDGIATLQTFISLNTSLIENIDFASLELYSRDEQRASNVFDLEGIFREYNFQAQNIA", "notes": "Epstein-Barr virus glycoprotein B (gB), ectodomain residues 22 to 672, PCR-amplified from the EBV M81 strain (GenBank KF373730.1); WY112-113 and WLIW193-196 replaced with HSV-1 residues HR177-178 and RVEA258-261; Tested both before encapsulation and after release from the nanoparticles; also called glycoprotein B; fusogen gB; source: 293F cells, transiently transfected (pCDNA3.1-gB), purified …"}},
  "biological_target": "the molecule itself",
  "assay": "native gel or EMSA; gB before encapsulation and gB released from nanoparticles, analysed under native non-reducing conditions (Fig. S5A)",
  "data": [
    {"protein": "B1", "values": [
      {"measurement": "stoichiometry N", "result": 3}
    ]}
  ]
}
